Columns and labels:
Assay in all cases: GST pull-down, LC-MS/MS
[1] = target: T1, Pfn2_IPI:IPI00227805.6 (mouse) (UniProt Q9JJV2)
T1 sequence (looked up): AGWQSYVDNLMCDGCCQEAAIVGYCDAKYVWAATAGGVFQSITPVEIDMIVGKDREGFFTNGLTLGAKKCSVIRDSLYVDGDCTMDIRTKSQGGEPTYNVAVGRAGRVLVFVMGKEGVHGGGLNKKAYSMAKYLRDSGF

[2] = target: T2, C1qbp_IPI:IPI00132799.4 (mouse) (UniProt O35658)
T2 sequence (looked up): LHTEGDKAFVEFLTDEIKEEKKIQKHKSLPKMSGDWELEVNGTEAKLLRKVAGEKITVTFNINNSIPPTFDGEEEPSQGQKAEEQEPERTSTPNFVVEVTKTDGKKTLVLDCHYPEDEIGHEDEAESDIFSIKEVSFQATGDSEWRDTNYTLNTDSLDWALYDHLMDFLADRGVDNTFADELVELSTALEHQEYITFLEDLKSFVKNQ

[3] = target: T3, Atp5f1_IPI:IPI00341282.2 (mouse) (UniProt Q9CQQ7)
T3 sequence (looked up): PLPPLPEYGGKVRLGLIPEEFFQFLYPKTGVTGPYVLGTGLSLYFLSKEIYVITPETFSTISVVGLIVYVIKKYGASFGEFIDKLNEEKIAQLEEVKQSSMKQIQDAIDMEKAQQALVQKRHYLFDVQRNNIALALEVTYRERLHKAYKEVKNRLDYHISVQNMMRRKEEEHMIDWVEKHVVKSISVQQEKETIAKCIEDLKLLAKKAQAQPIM

[4] = target: Atp1a3_IPI:IPI00122048.2 (mouse) (UniProt Q6PIC6)
[5] = target: T4, Syngr3_IPI:IPI00331579.1 (mouse) (UniProt Q8R191)
T4 sequence (looked up): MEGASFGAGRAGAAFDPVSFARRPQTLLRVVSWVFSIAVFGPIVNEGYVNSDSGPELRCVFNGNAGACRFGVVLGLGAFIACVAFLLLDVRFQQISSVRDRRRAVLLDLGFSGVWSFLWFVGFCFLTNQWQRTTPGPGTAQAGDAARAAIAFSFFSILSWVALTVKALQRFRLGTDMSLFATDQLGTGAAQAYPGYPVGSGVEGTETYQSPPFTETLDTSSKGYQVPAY

[6] = target: T5, Gbas_IPI:IPI00115827.1 (mouse) (UniProt O55126)
T5 sequence (looked up): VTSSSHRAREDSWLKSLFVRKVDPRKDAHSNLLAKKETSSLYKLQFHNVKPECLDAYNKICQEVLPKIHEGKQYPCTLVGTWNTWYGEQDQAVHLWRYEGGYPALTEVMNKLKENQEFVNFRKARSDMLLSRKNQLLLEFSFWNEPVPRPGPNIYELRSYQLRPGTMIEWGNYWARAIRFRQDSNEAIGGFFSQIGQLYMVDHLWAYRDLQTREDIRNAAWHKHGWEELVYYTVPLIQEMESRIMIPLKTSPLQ

[7] = target: IPI:IPI00123176.1_IPI:IPI00123176.1 (mouse)
[8] = target: Slc25a1_IPI:IPI00276926.3 (mouse) (UniProt Q8JZU2)
Sequence of Slc25a1_IPI:IPI00276926.3 (mouse) (Q8JZU2 14-311 limits assumed): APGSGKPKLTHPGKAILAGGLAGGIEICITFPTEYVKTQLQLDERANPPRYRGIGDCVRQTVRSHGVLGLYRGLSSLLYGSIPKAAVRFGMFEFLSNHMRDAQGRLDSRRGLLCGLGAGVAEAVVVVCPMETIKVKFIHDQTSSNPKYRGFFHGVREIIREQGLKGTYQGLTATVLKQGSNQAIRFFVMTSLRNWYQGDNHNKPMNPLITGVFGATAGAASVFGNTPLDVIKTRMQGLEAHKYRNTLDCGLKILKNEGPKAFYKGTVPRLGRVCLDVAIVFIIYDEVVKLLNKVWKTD

[9] = target: Ndufb5_IPI:IPI00132531.1 (mouse) (UniProt Q9CQH3)
Sequence of Ndufb5_IPI:IPI00132531.1 (mouse) (Q9CQH3 47-189 limits assumed): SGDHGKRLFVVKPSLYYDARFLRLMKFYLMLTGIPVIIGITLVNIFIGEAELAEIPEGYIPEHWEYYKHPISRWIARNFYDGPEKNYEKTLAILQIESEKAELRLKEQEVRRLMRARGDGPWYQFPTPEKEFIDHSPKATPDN

[10] = target: T6, Ccdc127_IPI:IPI00131843.3 (mouse) (UniProt Q3TC33)
T6 sequence (looked up): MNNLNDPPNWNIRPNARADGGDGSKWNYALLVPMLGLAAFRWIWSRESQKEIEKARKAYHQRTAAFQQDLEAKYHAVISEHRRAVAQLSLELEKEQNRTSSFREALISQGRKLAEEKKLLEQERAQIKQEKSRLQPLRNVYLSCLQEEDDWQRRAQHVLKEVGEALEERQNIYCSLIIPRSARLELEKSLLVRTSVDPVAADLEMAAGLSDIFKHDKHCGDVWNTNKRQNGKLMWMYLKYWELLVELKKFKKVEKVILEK

[11] = target: Loh12cr1_IPI:IPI00457620.2 (mouse)
[12] = target: Vsnl1_IPI:IPI00230418.5 (mouse) (UniProt P62761)
Sequence of Vsnl1_IPI:IPI00230418.5 (mouse) (P62761 2-191 limits assumed): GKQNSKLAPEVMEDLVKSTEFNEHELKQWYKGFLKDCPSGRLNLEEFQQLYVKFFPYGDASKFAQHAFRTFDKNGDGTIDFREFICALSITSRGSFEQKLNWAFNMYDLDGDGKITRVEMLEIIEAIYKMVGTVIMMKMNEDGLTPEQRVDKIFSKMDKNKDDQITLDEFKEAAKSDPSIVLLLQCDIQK

[13] = target: T7, Nipsnap1_IPI:IPI00115824.1 (mouse) (UniProt O55125)
T7 sequence (looked up): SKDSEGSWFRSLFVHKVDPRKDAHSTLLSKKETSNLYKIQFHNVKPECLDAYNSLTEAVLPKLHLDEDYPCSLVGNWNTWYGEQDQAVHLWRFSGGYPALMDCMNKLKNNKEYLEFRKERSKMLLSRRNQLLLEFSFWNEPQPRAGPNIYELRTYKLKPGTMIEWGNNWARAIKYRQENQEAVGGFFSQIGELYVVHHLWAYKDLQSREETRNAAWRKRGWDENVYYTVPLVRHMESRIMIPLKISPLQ

[14] = target: Slc1a2_IPI:IPI00230289.1 (mouse) (UniProt P43006)
Sequence of Slc1a2_IPI:IPI00230289.1 (mouse) (P43006 whole entry): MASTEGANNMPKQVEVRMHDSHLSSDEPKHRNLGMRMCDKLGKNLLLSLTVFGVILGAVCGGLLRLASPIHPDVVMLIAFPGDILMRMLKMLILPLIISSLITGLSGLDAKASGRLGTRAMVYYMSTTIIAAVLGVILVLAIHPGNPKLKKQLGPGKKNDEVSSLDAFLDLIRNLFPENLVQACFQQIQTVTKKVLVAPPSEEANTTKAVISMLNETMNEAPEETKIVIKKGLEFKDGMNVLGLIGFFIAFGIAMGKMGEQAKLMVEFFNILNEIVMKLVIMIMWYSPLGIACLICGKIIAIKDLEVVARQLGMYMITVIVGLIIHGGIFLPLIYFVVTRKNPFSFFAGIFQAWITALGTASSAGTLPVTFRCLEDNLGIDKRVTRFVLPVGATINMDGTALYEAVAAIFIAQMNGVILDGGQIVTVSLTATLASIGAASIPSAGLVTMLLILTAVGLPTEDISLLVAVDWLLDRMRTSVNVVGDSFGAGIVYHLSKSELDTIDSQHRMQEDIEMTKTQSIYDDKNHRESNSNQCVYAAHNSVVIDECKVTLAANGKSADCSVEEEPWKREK

[15] = target: Timm17b_IPI:IPI00129504.1 (mouse) (UniProt Q9Z0V7)
Sequence of Timm17b_IPI:IPI00129504.1 (mouse) (Q9Z0V7 whole entry): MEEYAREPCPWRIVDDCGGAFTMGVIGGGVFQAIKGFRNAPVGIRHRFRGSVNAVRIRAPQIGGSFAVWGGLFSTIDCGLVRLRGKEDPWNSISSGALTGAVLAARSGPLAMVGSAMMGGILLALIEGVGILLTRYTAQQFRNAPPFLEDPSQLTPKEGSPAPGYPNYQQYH

Sequence of GST-Httex1-23Q (P08515 1-218, tags or fused parts left off): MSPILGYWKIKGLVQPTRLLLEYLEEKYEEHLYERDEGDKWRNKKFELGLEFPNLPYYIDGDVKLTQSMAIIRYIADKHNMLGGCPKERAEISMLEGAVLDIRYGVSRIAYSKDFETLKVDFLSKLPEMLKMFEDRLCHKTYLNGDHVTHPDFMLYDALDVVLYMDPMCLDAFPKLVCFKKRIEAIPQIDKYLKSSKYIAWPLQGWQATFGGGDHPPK

Substance	No. of total peptides [1] [peptides]	No. of unique peptides [1] [peptides]	No. of total peptides [2] [peptides]	No. of unique peptides [2] [peptides]	No. of total peptides [3] [peptides]	No. of unique peptides [3] [peptides]	No. of total peptides [4] [peptides]	No. of unique peptides [4] [peptides]	No. of total peptides [5] [peptides]	No. of unique peptides [5] [peptides]	No. of total peptides [6] [peptides]	No. of unique peptides [6] [peptides]	No. of total peptides [7] [peptides]	No. of unique peptides [7] [peptides]	No. of total peptides [8] [peptides]	No. of unique peptides [8] [peptides]	No. of total peptides [9] [peptides]	No. of unique peptides [9] [peptides]	No. of total peptides [10] [peptides]	No. of unique peptides [10] [peptides]	also measured
GST-Httex1-23Q (from UniProt P08515 1-218; P42858 1-88)	1	1	6	3	3	3	2	2	1	1	2	2	1	1	1	1	1	1	2	2	No. of total peptides [11]: 1 peptides; No. of unique peptides [11]: 1 peptides; No. of total peptides [12]: 1 peptides; No. of unique peptides [12]: 1 peptides; No. of total peptides [13]: 1 peptides; No. of unique peptides [13]: 1 peptides; No. of total peptides [14]: 1 peptides; No. of unique peptides [14]: 1 peptides; No. of total peptides [15]: 3 peptides; No. of unique peptides [15]: 3 peptides
GST-Httex1-97Q (from UniProt P08515 1-218; P42858 1-88)	2	2	3	2	4	4	3	3	2	2	5	3	2	2	2	2	1	1	5	5	No. of total peptides [11]: 1 peptides; No. of unique peptides [11]: 1 peptides; No. of total peptides [12]: 2 peptides; No. of unique peptides [12]: 2 peptides; No. of total peptides [13]: 1 peptides; No. of unique peptides [13]: 1 peptides; No. of total peptides [14]: 1 peptides; No. of unique peptides [14]: 1 peptides; No. of total peptides [15]: 1 peptides; No. of unique peptides [15]: 1 peptides
